Results: paper PMC7494816
One block for each substance: values may come before it.

What was measured:
[1] = target: co-expressed and co-purified 2:1 Vps75–Rtt109 complex (Saccharomyces cerevisiae) (UniProt P53853); test: SEC-MALS; 20 μM co-expressed 2:1 Vps75–Rtt109 with 20 or 40 μM H3-H4 or H3DM-H4; Superdex 200 Increase 10/300 GL; 20 mM Tris–HCl pH 7.5, 300 mM NaCl, 0.5 mM TCEP
[2] = target: Vps75–Rtt109 complex reconstituted at 2:1 from individually purified proteins (Saccharomyces cerevisiae) (UniProt P53853); test: AUC; sedimentation velocity; 0.5 or 1 equivalent of H3-H4 or H3DM-H4 titrated against Vps75–Rtt109 reconstituted at 2:2 or 2:1 (relative to 7.5 μM Vps75), with 2:2 mixes of Vps75 and histones for reference; 20 mM Tris pH 7.5, 150 mM NaCl, 0.5 mM TCEP, 20°C
[3] = target: 2:1:1 Vps75–Rtt109–(H3-H4) complex formed from co-expressed Vps75–Rtt109 (Saccharomyces cerevisiae | Xenopus laevis) (UniProt P53853); test: SEC-MALS; 20 μM co-expressed 2:1 Vps75–Rtt109 with 20 or 40 μM H3-H4 or H3DM-H4; Superdex 200 Increase 10/300 GL; 20 mM Tris–HCl pH 7.5, 300 mM NaCl, 0.5 mM TCEP
[4] = target: Vps75–Rtt109 complex reconstituted at 2:2 from individually purified proteins (Saccharomyces cerevisiae) (UniProt P53853); test: AUC; sedimentation velocity; 0.5 or 1 equivalent of H3-H4 or H3DM-H4 titrated against Vps75–Rtt109 reconstituted at 2:2 or 2:1 (relative to 7.5 μM Vps75), with 2:2 mixes of Vps75 and histones for reference; 20 mM Tris pH 7.5, 150 mM NaCl, 0.5 mM TCEP, 20°C; details: scale: H3-H4 per Vps75 dimer
[5] = target: 2:1:1 Vps75–Rtt109–(H3-H4) complex, reconstituted from individually purified Vps75 and Rtt109 (Saccharomyces cerevisiae | Xenopus laevis) (UniProt P53853); test: as above

- stoichiometry N (H3DM-H4 per 2:1 Vps75–Rtt109 (2:1:1)) [1]: 1
- stoichiometry N (H3DM-H4 per Vps75 dimer (printed 2:2:1)) [2]: 1
Substance: Xenopus laevis H3DM-H4 (H3 dimerization mutant C110E, L126A, I130A with H4), refolded (from UniProt P62799 1-103) (complex)

- stoichiometry N (copies of the 2:1:1 sub-complex (4:2:2)) [3]: 2
Substance: 2:1:1 Vps75–Rtt109–(H3-H4) complex formed from co-expressed Vps75–Rtt109 (from UniProt P53853 1-264; Q07794 1-436; P84233 1-136; P62799 1-103)

- stoichiometry N (H3-H4 per 2:1 Vps75–Rtt109 (2:1:1)) [1]: 1
- stoichiometry N [4]: 1
Substance: Xenopus laevis histones H3-H4 (wild type), refolded (from UniProt P84233 1-136; P62799 1-103) (complex)

- stoichiometry N (copies of the 2:1:1 complex (4:2:2)) [5]: 2
Substance: 2:1:1 Vps75–Rtt109–(H3-H4) complex, reconstituted from individually purified Vps75 and Rtt109 (from UniProt P53853 1-264; Q07794 1-436; P84233 1-136; P62799 1-103)
